Entries after “also recorded” stand apart in the source; their conditions may differ.
Tests used:
[1] = test system: SW2 (polySia positive externally) cells; experiment: Internalization of scFv735, SW2; type: cell-based, human
From the text: (§1) FIG. 15 depicts cellular internalization of a polySia-specific single-chain Fv (scFv735) constructed by genetically fusing together the DNA encoding the variable heavy (VH) and variable light (VL) genes derived from mo735 with a flexible GlySer linker.
(§2) A polySia-specific single-chain […] (scFV735) was constructed by genetically fusing together the DNA encoding the variable heavy (VH) and variable light (VL) genes derived from mo735 with a flexible GlySer linker. Alexa Fluor 488 labeled scFv735 was incubated with SW2 (polySia positive externally) and MCF7 (polySia negative externally) cells for 2 hours at different concentrations ranging from 0-1,000 nM at either 4° C. or 37° C. (internalization). After incubation, the cells were washed and extracellular fluorescence was quenched with 0.2% Trypan Blue. Intracellular Fluoresence (geometric mean fluorescence intensity, MFI) indicative of internalized scFv735 was measured by flow cytometery.

[2] = test system: MCF7 (polySia negative externally) cells; experiment: Internalization of scFv735, MCF7; type: cell-based, human; details: MCF7, 2 hours, 0-1,000 nM
From the text: as §1, §2

[3] = Nagae et al.; cited from earlier work
[4] = target: chicken brain-derived polysialylated neural cell adhesion molecule (NCAM) (chicken) (UniProt P13590); experiment: ELISA, chicken brain NCAM coated on the plate, ch735 titrated, anti-human IgG secondary, Abs370
[5] = target: chicken brain-derived polysialylated neural cell adhesion molecule (NCAM) (chicken) (UniProt P13590); experiment: ELISA, NCAM coated on the plate, ch735 titrated (x axis 'ch735 [ng/mL]'), HRP secondary, Abs450
[6] = target: chicken brain-derived polysialylated neural cell adhesion molecule (NCAM) (chicken) (UniProt P13590); experiment: SPR (Biacore 3000), antibody captured on Protein A chip, NCAM 0.25-250 nM in solution, equilibrium fit with Hill slope
[7] = target: chicken brain-derived polysialylated neural cell adhesion molecule (NCAM) (chicken) (UniProt P13590); experiment: ELISA, chicken brain NCAM coated on the plate, mo735 titrated, anti-mouse IgG secondary, Abs370
[8] = target: NCAM (Homo sapiens, UniProt P13591); details: Target NCAM; literature; cited from earlier work

B1: scFv735: polySia-specific single-chain Fv fusing VH and VL of mo735 with a flexible GlySer linker (protein)
scFv: DVVMTQTPLSLPVSLGDQASISCRSSQSLVHSNGNTYLYWYLQKPGQSPKPLIYRVSNRFSGVPDRFSGSGSGTDFTLKISRVEAEDLGVYFCFQGTHVPYTFGGGTRLEIKGGGGSGGGGSGGGGSQIQLQQSGPELVRPGASVKISCKASGYTFTDYYIHWVKQRPGEGLEWIGWIYPGSGNTKYNEKFKGKATLTVDTSSSTAYMQLSSLTSEDSAVYFCARGGKFAMDYWGQGTSVTVSS
internalization (intracellular fluorescence) ([1]; SW2, 2 hours, 0-1,000 nM, 37° C.): observed to internalize; also recorded: increase with increasing concentration | internalization (intracellular fluorescence) ([1]; temperature reduced to 4° C.): blocked | internalization (intracellular fluorescence) [2]: not | degree of polymerization (DP) of shorter sialic acids bound [3]: ~3

B2: chimeric human IgG1 mAb ch735 (antibody, V domains shown)
VH: QIQLQQSGPELVRPGASVKISCKASGYTFTDYYIHWVKQRPGEGLEWIGWIYPGSGNTKYNEKFKGKATLTVDTSSSTAYMQLSSLTSEDSAVYFCARGGKFAMDYWGQGTSVTVSS
VL: DVVMTQTPLSLPVSLGDQASISCRSSQSLVHSNGNTYLYWYLQKPGQSPKPLIYRVSNRFSGVPDRFSGSGSGTDFTLKISRVEAEDLGVYFCFQGTHVPYTFGGGTRLEIK
EC50 (read off the curve) [4]: 10 ng/mL | EC50 (read off the curve) [5]: 10 ng/mL | Kd [6]: 4.79 nM

B3: mouse IgG2a mAb 735 (mo735) (antibody, V domains shown)
VH: QIQLQQSGPELVRPGASVKISCKASGYTFTDYYIHWVKQRPGEGLEWIGWIYPGSGNTKYNEKFKGKATLTVDTSSSTAYMQLSSLTSEDSAVYFCARGGKFAMDYWGQGTSVTVSS
VL: DVVMTQTPLSLPVSLGDQASISCRSSQSLVHSNGNTYLYWYLQKPGQSPKPLIYRVSNRFSGVPDRFSGSGSGTDFTLKISRVEAEDLGVYFCFQGTHVPYTFGGGTRLEIK
EC50 (read off the curve) [7]: 10 ng/mL | Kd [6]: 10.2 nM

B4: Lorvotuzumab DM1: CD56-targeting antibody-drug conjugate, literature (conjugate, chains of the INN, looked up)
VH: QVQLVESGGGVVQPGRSLRLSCAASGFTFSSFGMHWVRQAPGKGLEWVAYISSGSFTIYYADSVKGRFTISRDNSKNTLYLQMNSLRAEDTAVYYCARMRKGYAMDYWGQGTLVTVSS
VL: DVVMTQSPLSLPVTLGQPASISCRSSQIIIHSDGNTYLEWFQQRPGQSPRRLIYKVSNRFSGVPDRFSGSGSGTDFTLKISRVEAEDVGVYYCFQGSHVPHTFGQGTKVEIK
modifications: DM1 mertansine payload
notes: CD56-targeting antibody-drug conjugate, literature
EC50 [8]: 0.2 to 5 nM
